Laboratory results taken from patent US20120184457A1, “Modulation of miRNA Activity” (Cambridge Enterprise Limited, priority 2009, published 2012).

Key:
[1] = biological target: T1, LIN-28 (GST-LIN-28) (Caenorhabditis elegans) (UniProt P92186); assay: EMSA; settings: estimated; 50 mM Tris pH 7.6, 100 mM NaCl, 5 mM MgOAc2, tRNA competitor, room temperature
T1 sequence: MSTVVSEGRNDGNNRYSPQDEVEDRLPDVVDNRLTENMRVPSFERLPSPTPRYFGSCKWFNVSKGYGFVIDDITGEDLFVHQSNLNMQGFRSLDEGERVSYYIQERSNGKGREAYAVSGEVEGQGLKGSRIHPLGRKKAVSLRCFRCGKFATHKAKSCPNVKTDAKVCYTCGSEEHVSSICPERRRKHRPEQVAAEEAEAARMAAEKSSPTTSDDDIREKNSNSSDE

[2] = test system: recombinant GST-LIN-28 (C. elegans LIN-28 fused to glutathione-S-transferase) [GST: P08515]
Sequence of recombinant GST-LIN-28 (C. elegans LIN-28 fused to glutathione-S-transferase) [GST: P08515] (P08515 whole entry, looked up, the tested form may be a part): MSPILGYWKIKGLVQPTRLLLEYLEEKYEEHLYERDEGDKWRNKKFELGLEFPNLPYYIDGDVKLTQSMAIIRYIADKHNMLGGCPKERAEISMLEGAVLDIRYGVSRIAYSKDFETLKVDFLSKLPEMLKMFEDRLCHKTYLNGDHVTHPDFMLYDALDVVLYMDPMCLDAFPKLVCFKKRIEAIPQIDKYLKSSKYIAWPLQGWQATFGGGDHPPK

ZCCHC11 = biological target: T2, ZCCHC11 (Homo sapiens, UniProt Q5TAX3); assay: Screening assay for ZCCHC poly(U) polymerase inhibitors: in vitro uridylation of 5'-end-labeled pre-let-7; format: biochemical
T2 construct: expressed in transfected cells; host or cells: HEK293T
T2 sequence (Q5TAX3 whole entry): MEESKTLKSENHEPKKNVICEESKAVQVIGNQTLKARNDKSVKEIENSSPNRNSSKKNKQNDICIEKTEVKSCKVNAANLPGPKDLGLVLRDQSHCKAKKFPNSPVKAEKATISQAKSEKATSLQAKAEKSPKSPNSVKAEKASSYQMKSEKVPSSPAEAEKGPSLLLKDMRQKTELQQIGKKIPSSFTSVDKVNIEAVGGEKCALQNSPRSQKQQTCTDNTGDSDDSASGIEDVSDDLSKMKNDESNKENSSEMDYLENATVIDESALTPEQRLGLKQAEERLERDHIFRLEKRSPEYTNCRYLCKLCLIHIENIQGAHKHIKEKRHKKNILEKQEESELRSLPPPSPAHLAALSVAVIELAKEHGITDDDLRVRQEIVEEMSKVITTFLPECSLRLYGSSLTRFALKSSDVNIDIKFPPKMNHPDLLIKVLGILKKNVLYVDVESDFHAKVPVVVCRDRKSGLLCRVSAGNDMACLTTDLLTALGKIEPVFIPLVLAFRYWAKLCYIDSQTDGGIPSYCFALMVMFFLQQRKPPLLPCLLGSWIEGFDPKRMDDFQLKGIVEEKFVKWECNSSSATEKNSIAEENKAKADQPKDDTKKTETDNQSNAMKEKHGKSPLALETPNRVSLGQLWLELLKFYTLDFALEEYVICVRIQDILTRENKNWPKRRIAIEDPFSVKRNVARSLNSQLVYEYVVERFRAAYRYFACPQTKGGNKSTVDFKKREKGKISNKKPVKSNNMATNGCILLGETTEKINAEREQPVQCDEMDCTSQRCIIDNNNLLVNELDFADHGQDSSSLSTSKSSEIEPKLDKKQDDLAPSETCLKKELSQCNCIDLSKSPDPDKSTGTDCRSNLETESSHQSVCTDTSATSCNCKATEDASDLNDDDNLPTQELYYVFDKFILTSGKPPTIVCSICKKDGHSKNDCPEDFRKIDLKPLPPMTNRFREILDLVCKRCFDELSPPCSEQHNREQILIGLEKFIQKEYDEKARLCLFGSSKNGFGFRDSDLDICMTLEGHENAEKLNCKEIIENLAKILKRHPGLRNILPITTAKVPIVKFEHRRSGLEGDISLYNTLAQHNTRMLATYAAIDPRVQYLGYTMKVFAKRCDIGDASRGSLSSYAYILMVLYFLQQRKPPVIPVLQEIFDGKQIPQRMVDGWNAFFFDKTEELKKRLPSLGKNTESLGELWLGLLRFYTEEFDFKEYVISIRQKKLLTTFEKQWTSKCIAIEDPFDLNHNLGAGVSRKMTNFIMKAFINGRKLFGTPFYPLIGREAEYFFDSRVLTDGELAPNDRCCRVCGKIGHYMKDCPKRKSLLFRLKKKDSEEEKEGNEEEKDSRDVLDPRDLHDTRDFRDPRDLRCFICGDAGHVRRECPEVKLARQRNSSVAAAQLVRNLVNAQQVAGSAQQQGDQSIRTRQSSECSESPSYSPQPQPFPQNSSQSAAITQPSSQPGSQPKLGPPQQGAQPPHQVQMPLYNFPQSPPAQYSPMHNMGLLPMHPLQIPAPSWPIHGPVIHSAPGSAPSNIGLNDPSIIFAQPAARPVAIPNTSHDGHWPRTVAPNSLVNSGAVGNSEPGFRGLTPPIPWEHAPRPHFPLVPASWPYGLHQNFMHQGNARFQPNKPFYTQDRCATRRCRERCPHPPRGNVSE
Experimental: HEK293T cells were transfected with pHA-FLAG-ZCCHC11. After 48 hrs cells were lysed. 50 μl of the supernatant was incubated with 5 μl of pre-washed anti-FLAG antibody conjugated to agarose beads (Sigma) and incubated for 2 hrs at 4° C. Agarose-beads were washed twice with lysis buffer and twice with buffer D. For in vitro uridylation, agarose beads were incubated in a 30 μl reaction containing 3.2 mM of MgCl2, 1 mM of DTT and 0.25 mM of rUTP, 5 mM of test compound and 5′-end-labeled pre-let-7 of 1×10^4-1×10^5 cpm, for 20 min at 37° C. RNA was purified by Trizol extraction and isopropanol precipitated. Reactions were analysed in a 12% urea polyacrylamide gel.

pre-let-7 (in vitro transcribed) gave a Kd [1] of 2000 nM.

For “recombinant MBP-PUP2 (C. elegans PUP2 fused to maltose binding protein)”, the “polyuridylation of pre-let-7 in vitro (uridylation assay, incorporation of alpha-32P-UTP)” value [2] was “PUP2 was inactive on its own and required the addition of LIN-28 to polyuridylate pre-let-7” and the uridylation assay [2] was “PUP2 is a LIN-28 dependent pre-let-7 polyuridylase in vitro”.

With “uridine 5′-diphosphoglucuronic acid (UDP-GlcA) [compound 1]” the “uridylation activity of FLAG immunoprecipitates of ZCCHC11” value (ZCCHC11; FLAG immunoprecipitates, 5 mM of test compound, 20 min at 37° C., FIG. 15b) was “reduces the uridylation activity” and the “uridylation activity of whole cell extracts (endogenous and HA-FLAG-ZCCHC11 uridylyl activities)” value (ZCCHC11; whole cell extracts of HEK293T cells transfected with pHA-FLAG-ZCCHC11, FIG. 15a) was “reduces the uridylation activity”.
